Results taken from paper PMC10454665, “Structural Analysis of Plasmodium falciparum Hexokinase Provides Novel Information about Catalysis Due to a Plasmodium-Specific Insertion” (International Journal of Molecular Sciences, 2023).

Biological target: the molecule itself
Assay: SEC; HiLoad 16/60 Superdex 200 on an AKTA pure system after Talon purification; PfHK eluted at ~65 mL; mass estimated from a calibration curve

B1: Plasmodium falciparum hexokinase (enzyme)
chain: MSEYDIAKNDVTYTKLDTIECDIPINEELSWRINKFVNQLRISYSTLEEFVDNFVYELKKGLEAHRKHPNLWIPHECSFKMLDSCIANIPTGQEKGTYYAIDFGGTNFRAVRASLDGKGKIKRDQETYSLKFTGSYSHEKGLLDKHATASQLFDHFAERIKYIMGEFNDLDNKEVKSVGFTFSFPCTSPSINCSILIDWTKGFETGRATNDPVEGRDVCKLMNDAFVRAAIPAKVCCVLNDAVGTLMSCAYQKGRGTPPCYIGIILGTGSNGCYYEPEWKKYKYAGKIINIEFGNFDKDLPTSPIDLVMDWYSANRSRQLFEKMISGAYLGEIVRRFMVNVLQSACSKKMWISDSFNSESGSVVLNDTSKNFEDSRKVAKAAWDMDFTDEQIYVLRKICEAVYNRSAALARGTIAAIAKRIKIIEHSKFTCGVDGSLFVKNAWYCKRLQEHLKVILADKAENLIIIPADDGSGKGAAITAAVIALNADIPQLP
notes: Hexokinase of Plasmodium falciparum, PlasmoDB PF3D7_0624000, gene ordered codon-optimised for E. coli and cloned into pET30a-c(+); the model holds I25-N486 (subunit A) and I23-I489 (subunit B); The PlasmoDB id is that of strain 3D7; also called PfHK; P. falciparum hexokinase
In the case of B1, the “stoichiometry N” value is reported as 4.
